In article PMC3268818:

Target: BclXL_FL, full-length human BclXL (residues 1–233) (human), Q07817
Experiment: ITC

Sequence of BclXL_FL, full-length human BclXL (residues 1–233) (human), Q07817 (Q07817 whole entry, the tested form may be a part): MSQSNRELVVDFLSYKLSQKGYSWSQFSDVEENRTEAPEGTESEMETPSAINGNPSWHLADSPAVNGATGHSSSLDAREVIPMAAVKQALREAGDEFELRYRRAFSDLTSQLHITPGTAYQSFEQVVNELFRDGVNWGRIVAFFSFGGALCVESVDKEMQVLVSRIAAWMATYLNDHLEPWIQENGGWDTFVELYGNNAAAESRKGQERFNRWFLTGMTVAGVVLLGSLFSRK

- Kd: 9.97 µM
- dH: -18.7 kcal/mol
Binder: DIIRNIARHLAQVGDSMDRS (modifications not checked) [Bid_BH3 peptide (20-mer spanning the BH3 domain of human Bid)]
